According to patent publication US20130217616:

B1: recombinant human MBL-Associated Serine Protease-3 (rMASP-3) (protein)
chain: HTVELNNMFGQIQSPGYPDSYPSDSEVTWNITVPDGFRIKLYFMHFNLESSYLCEYDYVKVETEDQVLATFCGRETTDTEQTPGQEVVLSPGSFMSITFRSDFSNEERFTGFDAHYMAVDVDECKEREDEELSCDHYCHNYIGGYYCSCRFGYILHTDNRTCRVECSDNLFTQRTGVITSPDFPNPYPKSSECLYTIELEEGFMVNLQFEDIFDIEDHPEVPCPYDYIKIKVGPKVLGPFCGEKAPEPISTQSHSVLILFHSDNSGENRGWRLSYRAAGNECPELQPPVHGKIEPSQAKYFFKDQVLVSCDTGYKVLKDNVEMDTFQIECLKDGTWSNKIPTCKIVDCRAPGELEHGLITFSTRNNLTTYKSEIKYSCQEPYYKMLNNNTGIYTCSAQGVWMNKVLGRSLPTCLPECGQPSRSLPSLVKRIIGGRNAEPGLFPWQALIVVEDTSRVPNDKWFGSGALLSASWILTAAHVLRSQRRDTTVIPVSKEHVTVYLGLHDVRDKSGAVNSSAARVVLHPDFNIQNYNHDIALVQLQEPVPLGPHVMPVCLPRLEPEGPAPHMLGLVAGWGISNPNVTVDEIISSGTRTLSDVLQYVKLPVVPHAECKTSYESRSGNYSVTENMFCAGYYEGGKDTCLGDSGGAFVIFDDLSQRWVVQGLVSWGGPEECGSKQVYGVYTKVSNYVDWVWEQMGLPQSVVEPQVER
B2: recombinant human MBL-Associated Serine Protease-2 (rMASP-2) (protein)
chain: TPLGPKWPEPVFGRLASPGFPGEYANDQERRWTLTAPPGYRLRLYFTHFDLELSHLCEYDFVKLSSGAKVLATLCGQESTDTERAPGKDTFYSLGSSLDITFRSDYSNEKPFTGFEAFYAAEDIDECQVAPGEAPTCDHHCHNHLGGFYCSCRAGYVLHRNKRTCSALCSGQVFTQRSGELSSPEYPRPYPKLSSCTYSISLEEGFSVILDFVESFDVETHPETLCPYDFLKIQTDREEHGPFCGKTLPHRIETKSNTVTITFVTDESGDHTGWKIHYTSTAQPCPYPMAPPNGHVSPVQAKYILKDSFSIFCETGYELLQGHLPLKSFTAVCQKDGSWDRPMPACSIVDCGPPDDLPSGRVEYITGPGVTTYKAVIQYSCEETFYTMKVNDGKYVCEADGFWTSSKGEKSLPVCEPVCGLSARTTGGRIYGGQKAKPGDFPWQVLILGGTTAAGALLYDNWVLTAAHAVYEQKHDASALDIRMGTLKRLSPHYTQAWSEAVFIHEGYTHDAGFDNDIALIKLNNKVVINSNITPICLPRKEAESFMRTDDIGTASGWGLTQRGFLARNLMYVDIPIVDHQKCTAAYEKPPYPRGSVTANMLCAGLESGGKDSCRGDSGGALVFLDSETERWFVGGIVSWGSMNCGEAGQYGVYTKVINYIPWIENIISDF
B3: recombinant human MBL-Associated Serine Protease-1 (rMASP-1) (protein)
chain: HTVELNNMFGQIQSPGYPDSYPSDSEVTWNITVPDGFRIKLYFMHFNLESSYLCEYDYVKVETEDQVLATFCGRETTDTEQTPGQEVVLSPGSFMSITFRSDFSNEERFTGFDAHYMAVDVDECKEREDEELSCDHYCHNYIGGYYCSCRFGYILHTDNRTCRVECSDNLFTQRTGVITSPDFPNPYPKSSECLYTIELEEGFMVNLQFEDIFDIEDHPEVPCPYDYIKIKVGPKVLGPFCGEKAPEPISTQSHSVLILFHSDNSGENRGWRLSYRAAGNECPELQPPVHGKIEPSQAKYFFKDQVLVSCDTGYKVLKDNVEMDTFQIECLKDGTWSNKIPTCKIVDCRAPGELEHGLITFSTRNNLTTYKSEIKYSCQEPYYKMLNNNTGIYTCSAQGVWMNKVLGRSLPTCLPVCGLPKFSRKLMARIFNGRPAQKGTTPWIAMLSHLNGQPFCGGSLLGSSWIVTAAHCLHQSLDPEDPTLRDSDLLSPSDFKIILGKHWRLRSDENEQHLGVKHTTLHPQYDPNTFENDVALVELLESPVLNAFVMPICLPEGPQQEGAMVIVSGWGKQFLQRFPETLMEIEIPIVDHSTCQKAYAPLKKKVTRDMICAGEKEGGKDACAGDSGGPMVTLNRERGQWYLVGTVSWGDDCGKKDRYGVYSYIHHNKDWIQRVTGVRN

Experiments:
[1] = biological target: recombinant, full-length, non-tagged mannose-binding lectin (rMBL), P11226
[2] = biological target: recombinant human Ficolin-3 (rFicolin-3), O75636
Chain of recombinant human Ficolin-3 (rFicolin-3), O75636 (O75636 24-299): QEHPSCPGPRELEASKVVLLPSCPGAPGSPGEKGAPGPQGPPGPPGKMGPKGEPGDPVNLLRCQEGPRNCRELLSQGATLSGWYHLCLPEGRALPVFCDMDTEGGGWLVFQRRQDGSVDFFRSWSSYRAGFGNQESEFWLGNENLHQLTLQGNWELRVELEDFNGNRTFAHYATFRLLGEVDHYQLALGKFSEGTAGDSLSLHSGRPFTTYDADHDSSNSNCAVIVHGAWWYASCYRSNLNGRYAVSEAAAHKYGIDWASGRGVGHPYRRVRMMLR

Chain of recombinant, full-length, non-tagged mannose-binding lectin (rMBL), P11226 (P11226 21-248): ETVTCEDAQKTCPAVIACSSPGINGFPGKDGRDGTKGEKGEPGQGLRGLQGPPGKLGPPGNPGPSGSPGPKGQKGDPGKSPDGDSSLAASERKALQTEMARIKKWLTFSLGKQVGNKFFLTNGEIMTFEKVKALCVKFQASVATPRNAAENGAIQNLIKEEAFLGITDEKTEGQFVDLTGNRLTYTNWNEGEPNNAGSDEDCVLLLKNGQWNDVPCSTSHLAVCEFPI

Protein	activation of C3 and C4 [1]	C4 deposition (AcBSA/rFicolin-3, Ficolin-3 deficient serum) [2]	C4 deposition (mannan/rMBL, MBL deficient serum) [1]
B1	MASP-3 were able to inhibit the activation of both the C3 and C4 complement proteins		
B2	MASP-2 were able to strongly activate both the C3 and C4 complement proteins	Application of rMASP-2 resulted in a strong positive dose dependent enhancement of the C4 deposition via both the Ficolin-3 and MBL activation pathways	Application of rMASP-2 resulted in a strong positive dose dependent enhancement of the C4 deposition via both the Ficolin-3 and MBL activation pathways
B3	MASP-1 were able to activate both the C3 and C4 complement proteins		
